Common to all, as to experiment: Biacore off-rate vs wt GC1008, 50 nM
On the technique in general: Surface plasmon resonance follows binding to a sensor surface in real time, without labels.

One assay concerns the target T1, human TGFβ1 (human, UniProt P01137 279-390).
T1 construct: also called TGFβ1 homodimer
The method, boiled down: (§1)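 Surface plasmon resonance on a Biacore 3000 measured how fast purified antibody variants dissociated from TGFβ isoforms immobilized at about 100 RU. Variants carried single heavy- or light-chain substitutions and were produced by transient Expi293F transfection with Protein A cleanup. Samples at 50 nM were tested in duplicate, and each variant kd was divided by the wild-type control kd to give fold change.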

In another assay the target is T2, human TGFβ2 (human, UniProt P61812 303-414).
T2 construct: also called TGFβ2 homodimer
T2 sequence: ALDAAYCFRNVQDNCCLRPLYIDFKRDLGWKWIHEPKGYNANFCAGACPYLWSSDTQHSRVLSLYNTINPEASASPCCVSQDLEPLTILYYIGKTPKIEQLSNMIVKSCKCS
In short, it runs like this:
as §1

For the next assay, the target named is T3, human TGFβ3 (human, UniProt P10600 301-412).
T3 sequence: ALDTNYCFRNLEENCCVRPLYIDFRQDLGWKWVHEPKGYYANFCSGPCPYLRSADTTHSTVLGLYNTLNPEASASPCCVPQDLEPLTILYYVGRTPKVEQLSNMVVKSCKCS
The method, boiled down:
as §1

T1 sequence (P01137 279-390 limits assumed): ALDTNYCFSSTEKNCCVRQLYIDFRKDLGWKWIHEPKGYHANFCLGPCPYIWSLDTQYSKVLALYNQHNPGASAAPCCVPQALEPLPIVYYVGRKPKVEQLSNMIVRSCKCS

B1: S30M (antibody, V domains shown)
VH: QVQLVQSGAEVKKPGSSVKVSCKASGYTFMSNVISWVRQAPGQGLEWMGGVIPIVDIANYAQRFKGRVTITADESTSTTYMELSSLRSEDTAVYYCASTLGLVLDAMDYWGQGTLVTVSS
VL: ETVLTQSPGTLSLSPGERATLSCRASQSLGSSYLAWYQQKPGQAPRLLIYGASSRAPGIPDRFSGSGSGTDFTLTISRLEPEDFAVYYCQQYADSPITFGQGTRLEIK
notes: GC1008 IgG4 variant
Turning to B1, the kd var/kd wt is 0.7 with human TGFβ1, 0.9 with human TGFβ2 and 1 with human TGFβ3.

B2: S31H (antibody, V domains shown)
VH: QVQLVQSGAEVKKPGSSVKVSCKASGYTFSHNVISWVRQAPGQGLEWMGGVIPIVDIANYAQRFKGRVTITADESTSTTYMELSSLRSEDTAVYYCASTLGLVLDAMDYWGQGTLVTVSS
VL: ETVLTQSPGTLSLSPGERATLSCRASQSLGSSYLAWYQQKPGQAPRLLIYGASSRAPGIPDRFSGSGSGTDFTLTISRLEPEDFAVYYCQQYADSPITFGQGTRLEIK
notes: GC1008 IgG4 variant
For the molecule B2, the results for the kd var/kd wt in the assay with human TGFβ1, in the assay with human TGFβ2 and in the assay with human TGFβ3 were 1.5, 1.3 and 1.4, respectively.

B3: S31K (antibody, V domains shown)
VH: QVQLVQSGAEVKKPGSSVKVSCKASGYTFSKNVISWVRQAPGQGLEWMGGVIPIVDIANYAQRFKGRVTITADESTSTTYMELSSLRSEDTAVYYCASTLGLVLDAMDYWGQGTLVTVSS
VL: ETVLTQSPGTLSLSPGERATLSCRASQSLGSSYLAWYQQKPGQAPRLLIYGASSRAPGIPDRFSGSGSGTDFTLTISRLEPEDFAVYYCQQYADSPITFGQGTRLEIK
notes: GC1008 IgG4 variant
Consider B3, for which the kd var/kd wt with human TGFβ1 stood at 1.8; in the assay with human TGFβ2, 1.2; in the assay with human TGFβ3, 1.4.

B4: S31Q (antibody, V domains shown)
VH: QVQLVQSGAEVKKPGSSVKVSCKASGYTFSQNVISWVRQAPGQGLEWMGGVIPIVDIANYAQRFKGRVTITADESTSTTYMELSSLRSEDTAVYYCASTLGLVLDAMDYWGQGTLVTVSS
VL: ETVLTQSPGTLSLSPGERATLSCRASQSLGSSYLAWYQQKPGQAPRLLIYGASSRAPGIPDRFSGSGSGTDFTLTISRLEPEDFAVYYCQQYADSPITFGQGTRLEIK
notes: GC1008 IgG4 variant
Regarding B4, the kd var/kd wt with human TGFβ1 amounted to 1.5; with human TGFβ2 it was 1; with human TGFβ3, 1.

B5: S30V (antibody, V domains shown)
VH: QVQLVQSGAEVKKPGSSVKVSCKASGYTFVSNVISWVRQAPGQGLEWMGGVIPIVDIANYAQRFKGRVTITADESTSTTYMELSSLRSEDTAVYYCASTLGLVLDAMDYWGQGTLVTVSS
VL: ETVLTQSPGTLSLSPGERATLSCRASQSLGSSYLAWYQQKPGQAPRLLIYGASSRAPGIPDRFSGSGSGTDFTLTISRLEPEDFAVYYCQQYADSPITFGQGTRLEIK
notes: GC1008 IgG4 variant
For B5, the kd var/kd wt in the assay with human TGFβ1 worked out at 1.1; with human TGFβ2 it was 1.2; with human TGFβ3, 1.1.

B6: S31A (antibody, V domains shown)
VH: QVQLVQSGAEVKKPGSSVKVSCKASGYTFSANVISWVRQAPGQGLEWMGGVIPIVDIANYAQRFKGRVTITADESTSTTYMELSSLRSEDTAVYYCASTLGLVLDAMDYWGQGTLVTVSS
VL: ETVLTQSPGTLSLSPGERATLSCRASQSLGSSYLAWYQQKPGQAPRLLIYGASSRAPGIPDRFSGSGSGTDFTLTISRLEPEDFAVYYCQQYADSPITFGQGTRLEIK
notes: GC1008 IgG4 variant
For B6, the kd var/kd wt with human TGFβ1 is 1.2; with human TGFβ2, 1.2; in the assay with human TGFβ3, 1.1.

B7: S31L (antibody, V domains shown)
VH: QVQLVQSGAEVKKPGSSVKVSCKASGYTFSLNVISWVRQAPGQGLEWMGGVIPIVDIANYAQRFKGRVTITADESTSTTYMELSSLRSEDTAVYYCASTLGLVLDAMDYWGQGTLVTVSS
VL: ETVLTQSPGTLSLSPGERATLSCRASQSLGSSYLAWYQQKPGQAPRLLIYGASSRAPGIPDRFSGSGSGTDFTLTISRLEPEDFAVYYCQQYADSPITFGQGTRLEIK
notes: GC1008 IgG4 variant
On to B7, for which the kd var/kd wt was determined as 2 with human TGFβ1, 1.2 with human TGFβ2 and 1.5 with human TGFβ3.

B8: S31G (antibody, V domains shown)
VH: QVQLVQSGAEVKKPGSSVKVSCKASGYTFSGNVISWVRQAPGQGLEWMGGVIPIVDIANYAQRFKGRVTITADESTSTTYMELSSLRSEDTAVYYCASTLGLVLDAMDYWGQGTLVTVSS
VL: ETVLTQSPGTLSLSPGERATLSCRASQSLGSSYLAWYQQKPGQAPRLLIYGASSRAPGIPDRFSGSGSGTDFTLTISRLEPEDFAVYYCQQYADSPITFGQGTRLEIK
notes: GC1008 IgG4 variant
For the molecule B8, the values for the kd var/kd wt in the assay with human TGFβ1, with human TGFβ2 and with human TGFβ3 were 1.1, 1.2 and 1.1, respectively.

B9: S30Q (antibody, V domains shown)
VH: QVQLVQSGAEVKKPGSSVKVSCKASGYTFQSNVISWVRQAPGQGLEWMGGVIPIVDIANYAQRFKGRVTITADESTSTTYMELSSLRSEDTAVYYCASTLGLVLDAMDYWGQGTLVTVSS
VL: ETVLTQSPGTLSLSPGERATLSCRASQSLGSSYLAWYQQKPGQAPRLLIYGASSRAPGIPDRFSGSGSGTDFTLTISRLEPEDFAVYYCQQYADSPITFGQGTRLEIK
notes: GC1008 IgG4 variant
Consider B9, for which the values for the kd var/kd wt with human TGFβ1, with human TGFβ2 and with human TGFβ3 were 1.2, 1.2 and 1.1, respectively.

B10: S30P (antibody, V domains shown)
VH: QVQLVQSGAEVKKPGSSVKVSCKASGYTFPSNVISWVRQAPGQGLEWMGGVIPIVDIANYAQRFKGRVTITADESTSTTYMELSSLRSEDTAVYYCASTLGLVLDAMDYWGQGTLVTVSS
VL: ETVLTQSPGTLSLSPGERATLSCRASQSLGSSYLAWYQQKPGQAPRLLIYGASSRAPGIPDRFSGSGSGTDFTLTISRLEPEDFAVYYCQQYADSPITFGQGTRLEIK
notes: GC1008 IgG4 variant
On to B10, for which the kd var/kd wt with human TGFβ1 is 1.2; in the assay with human TGFβ2, 1; with human TGFβ3 it was 0.9.

B11: S30T (antibody, V domains shown)
VH: QVQLVQSGAEVKKPGSSVKVSCKASGYTFTSNVISWVRQAPGQGLEWMGGVIPIVDIANYAQRFKGRVTITADESTSTTYMELSSLRSEDTAVYYCASTLGLVLDAMDYWGQGTLVTVSS
VL: ETVLTQSPGTLSLSPGERATLSCRASQSLGSSYLAWYQQKPGQAPRLLIYGASSRAPGIPDRFSGSGSGTDFTLTISRLEPEDFAVYYCQQYADSPITFGQGTRLEIK
notes: GC1008 IgG4 variant
B11: the kd var/kd wt with human TGFβ1 worked out at 1.2; in the assay with human TGFβ2, 1.2; in the assay with human TGFβ3, 1.1.

B12: S30N (antibody, V domains shown)
VH: QVQLVQSGAEVKKPGSSVKVSCKASGYTFNSNVISWVRQAPGQGLEWMGGVIPIVDIANYAQRFKGRVTITADESTSTTYMELSSLRSEDTAVYYCASTLGLVLDAMDYWGQGTLVTVSS
VL: ETVLTQSPGTLSLSPGERATLSCRASQSLGSSYLAWYQQKPGQAPRLLIYGASSRAPGIPDRFSGSGSGTDFTLTISRLEPEDFAVYYCQQYADSPITFGQGTRLEIK
notes: GC1008 IgG4 variant
For the molecule B12, the kd var/kd wt in the assay with human TGFβ1 stood at 1.3; with human TGFβ2 it was 1.3; in the assay with human TGFβ3 it was 1.2.

B13: S31E (antibody, V domains shown)
VH: QVQLVQSGAEVKKPGSSVKVSCKASGYTFSENVISWVRQAPGQGLEWMGGVIPIVDIANYAQRFKGRVTITADESTSTTYMELSSLRSEDTAVYYCASTLGLVLDAMDYWGQGTLVTVSS
VL: ETVLTQSPGTLSLSPGERATLSCRASQSLGSSYLAWYQQKPGQAPRLLIYGASSRAPGIPDRFSGSGSGTDFTLTISRLEPEDFAVYYCQQYADSPITFGQGTRLEIK
notes: GC1008 IgG4 variant
With B13, the kd var/kd wt with human TGFβ1 amounted to 1.7; with human TGFβ2 it was 1.4; with human TGFβ3 it was 1.4.

B14: S30R (antibody, V domains shown)
VH: QVQLVQSGAEVKKPGSSVKVSCKASGYTFRSNVISWVRQAPGQGLEWMGGVIPIVDIANYAQRFKGRVTITADESTSTTYMELSSLRSEDTAVYYCASTLGLVLDAMDYWGQGTLVTVSS
VL: ETVLTQSPGTLSLSPGERATLSCRASQSLGSSYLAWYQQKPGQAPRLLIYGASSRAPGIPDRFSGSGSGTDFTLTISRLEPEDFAVYYCQQYADSPITFGQGTRLEIK
notes: GC1008 IgG4 variant
In the case of B14, the kd var/kd wt amounted to 1.9 with human TGFβ1, 1.2 in the assay with human TGFβ2 and 1.3 in the assay with human TGFβ3.

B15: S31P (antibody, V domains shown)
VH: QVQLVQSGAEVKKPGSSVKVSCKASGYTFSPNVISWVRQAPGQGLEWMGGVIPIVDIANYAQRFKGRVTITADESTSTTYMELSSLRSEDTAVYYCASTLGLVLDAMDYWGQGTLVTVSS
VL: ETVLTQSPGTLSLSPGERATLSCRASQSLGSSYLAWYQQKPGQAPRLLIYGASSRAPGIPDRFSGSGSGTDFTLTISRLEPEDFAVYYCQQYADSPITFGQGTRLEIK
notes: GC1008 IgG4 variant
As for B15, the kd var/kd wt with human TGFβ1 is 1.5; with human TGFβ2, 1.2; with human TGFβ3, 1.2.

B16: S30Y (antibody, V domains shown)
VH: QVQLVQSGAEVKKPGSSVKVSCKASGYTFYSNVISWVRQAPGQGLEWMGGVIPIVDIANYAQRFKGRVTITADESTSTTYMELSSLRSEDTAVYYCASTLGLVLDAMDYWGQGTLVTVSS
VL: ETVLTQSPGTLSLSPGERATLSCRASQSLGSSYLAWYQQKPGQAPRLLIYGASSRAPGIPDRFSGSGSGTDFTLTISRLEPEDFAVYYCQQYADSPITFGQGTRLEIK
notes: GC1008 IgG4 variant
Take B16: the results for the kd var/kd wt in the assay with human TGFβ1, with human TGFβ2 and with human TGFβ3 were 1, 0.9 and 0.8, respectively.

(Values after patent US20170342144A1 (Sanofi, published 2017).)
